From patent US10677782B2, “Methods of determining interferon having direct inhibitory effects on tumors and uses thereof” (SUPERLAB FAR EAST LIMITED, priority 2013, dated 2020)

How the values were obtained:
[1] = system: human lung cancer SPC-A4 xenografts; assay: Human lung cancer SPC-A4 xenografts in nude mice (Example 4); assay type: in vivo; conditions: for TV (mm^3, mean ± SD) (D0): day 0, start of treatment; for TV (mm^3, mean ± SD) (D21): day 21
Method: Before commencement of this study, the xenografts were passaged twice in nude mice. Under sterile conditions, well-grown tumors were cut into 1.5 mm^3 fragments and one such fragment was injected by trocar needle into the right flank of each study animal. […] Individual tumor size (length and width) was measured twice per week with microcalipers. Tumor volume (V) was calculated using the formula: V=(length×width^2)/2. Individual relative tumor volume (RTV) was calculated using the formula: RTV=Vt/V0, where Vt is the tumor volume on the day of measurement and V0 is the tumor volume on the day of first treatment. Therapeutic effect of the test article or control article was expressed in terms of TIC (%), using the formula: TIC (%) (mean RTV of the treated group/mean RTV of the control group)×100%; and in terms of % Inhibition, using the formula: % Inhibition=100%−T/C %.
The 1.5 mm^3 fragments were then used for s.c. implantation into the test animals.

[2] = Tolerability and body weight of tumor-bearing mice, Example 1; assay type: in vivo, BALB/cA nu/nu mice; conditions: 0.05-0.15 mg/mouse i.t. every other day, 21 days
From the text: The animals used were 4-6 weeks old male BALB/cA nu/nu mice, weighing about 23±2 g, obtained from the Shanghai Institute of Materia Medica (Shanghai, P.R. China). The study protocol was reviewed by the Committee on the Use and Care of Animals of Shanghai Institute of Materia Medica for compliance with regulations, and Committee approval was obtained prior to study initiation. Wherever possible, procedures used in this study were designed to avoid or minimize discomfort, distress, and pain to the animals. Animals that experience severe or chronic pain or distress that could not be relieved were painlessly euthanized, in accordance to regulations. Animals were housed 6 to a cage. They were ear-marked with ear hole punch identification. The room temperature was maintained at 25° C.±1° C. Lighting was set at 12 hr on and 12 hr off. Food was provided ad libitum. City tap water, filtered with a 5 micrometer (μm) filter, was provided to the animals ad libitum via water bottles.
Animals were assigned to treatment groups randomly. Initially, all animals were placed in one large animal cage. For assignment to the study, they were later separately housed, with 6 animals per cage per treatment group. […] Tumor growth was monitored by measuring the length and width of each tumor twice a week during the course of the study. […]

different cancer cells = assay: Cell viability, Am-Blue assay, 48 hr, across the cancer cell lines tested; assay type: cell-based, human; conditions: 100 mcg/ml, any of the cancer cell lines
Method: Cell culture and reagents human lung cancer cell lines (A549, H1299, H460, Calu-1), human liver cancer cell lines (SMMC-7721, Huh-7, CL-1), human cervical carcinoma cell line (Hela), human breast cancer cell line (MDA-MB-231), human pancreatic cancer cell line (PANC-1) and human colon cancer cell lines (SW620, HT29, SW480) were purchased from the Shanghai Cell Collection (Shanghai, China). The above cell lines were cultured in 5% CO2 at 37° C. in corresponding complete growth medium formulated by the Shanghai Cell Collection, with 10% heat-inactivated fetal bovine serum (Biochrom, Germany), supplemented with 4 mM glutamine, 50 U/ml penicillin and […] streptomycin.
About 5×10^3 cells in 100 μl complete medium per well were plated in 96-well plates, incubated overnight, and then treated with IFN α-2b or rSIFN-co at concentrations of 100 μg/ml, 50 μg/ml, 25 μg/ml, 12.5 μg/ml, 6.25 μg/ml, 3.13 μg/ml, 1.56 μg/ml, 0.78 μg/ml, 0.39 μg/ml, and 0.20 μg/ml, respectively, for about 48 hr, at which time the cells were harvested for analysis. The cell viability rate was evaluated by SunBio Am-Blue assay kit (Cat #: SBAB8025, Shanghai SBO Medical Biotechnology Co., Ltd, Shanghai, China). […] Results are shown in FIG. 5, in which viability of the tumor cells was expressed as a percentage relative to control cells that were not treated. […]

[3] = system: beta-catenin protein level in A549 cells; assay: Beta-catenin protein level by Western Blot; assay type: cell-based, human; conditions: 10 mcg/ml
Method: (§1) Cancer cells, A549 and Sw480, were cultured to about 85% confluency and put into 6 well plates. The cells were treated with either 10 mcg/ml IFNα-2b or rSIFN-co or left untreated as control (Mock) for 24 hr, 48 hr, or 72 hr, respectively. After treatment, the cells were harvested for Western Blot to detect the beta-catenin protein level, using its specific antibody, with GAPDH as endogenous loading control. The experiment was conducted in triplicate.
(§2) To determine the expression of various proteins, cells were harvested from the plates and total cellular protein were extracted using extraction reagents (Cat #: P0013) according to the manufacturer's protocol (Beyotime, China). The total protein concentration was determined by the Lowry Protein Assay kit (Bio-Rad, USA). […] The membranes were blocked with 5% skimmed milk, bovine serum albumin, 10 mmol/L Tris-HCl at pH 8.0, 150 mmol/L NaCl, and 0.05% Tween 20 overnight at 4° C. The blocked membranes were then incubated with primary antibodies (1:1000 dilutions), followed by secondary HRP-conjugated antibodies. Blots were visualized using Luminescence/Fluorescence Imaging LAS4000 System (GE Healthcare Life Sciences, USA) with super signal west pico chemiluminescent substrate kit (Thermo scientific, USA).
(§3) For this determination, the primary antibodies used were mouse monoclonal anti-beta-catenin antibodies (1:1000; Santa Cruz Technology, Santa Cruz, Calif.) and mouse monoclonal anti-GAPDH antibodies (1:2000) (Kangwei Biotechnology, China). Anti-mouse HRP-conjugated secondary antibodies (Santa Cruz Technology, Santa Cruz, Calif.) were used at concentrations of 1:2000.

[4] = system: beta-catenin protein level in SW480 cells; assay: Beta-catenin protein level by Western Blot; assay type: cell-based, human; conditions: 10 mcg/ml, 72 hours
Method: as §1, §2, §3

[5] = system: procaspase-3, cleaved caspase-3, procaspase-8, cleaved caspase-8, PARP in A549 cells; assay: Apoptosis-related molecular markers by Western Blot; assay type: cell-based, human; conditions: 24 hr or 48 hr; interferons at 10 mcg/ml
From the text: (§4) Thereafter, apoptosis-related molecular markers were monitored by Western Blot. The primary antibodies used were mouse monoclonal anti-beta-tubulin (1:2000, Cat #: CW0098A) and mouse monoclonal anti-GAPDH (1:2000, Cat #: CW0100A) (Kangwei Biotechnology, China); mouse monoclonal anti-PARP (1:1000, Cat #: se-2007, Santa Cruz Biotechnology, Inc.); rabbit monoclonal anti-procaspase 3 (1:1000, Cat #: 9665), and rabbit polyclonal anti-cleaved caspase 3 (1:1000, Cat #: 9661) (Cell Signaling Technology, USA); goat polyclonal anti-procaspase 8 (1:1000, Cat #: sc-6136, Santa Cruz Biotechnology, Inc); rabbit monoclonal anti-cleaved caspase 8 (1:1000, Cat #: 9496) (Cell Signaling Technology, USA).

[6] = system: procaspase-3, cleaved caspase-3, procaspase-8, cleaved caspase-8, PARP in SW620 cells; assay: as above; assay type: cell-based, human; conditions: 24 hr or 48 hr; interferons at 10 mcg/ml
From the text: as §4

[7] = 0.05 mg/mouse i.t. every other day
[8] = 0.10 mg/mouse i.t. every other day
[9] = 0.15 mg/mouse i.t. every other day

B1: rSIFN-co: Recombinant super-compound interferon; amino acid sequence SEQ ID NO: 1 (same as interferon alfacon-1), encoded by SEQ ID NO: 2, novel tertiary structure (protein)
chain: MCDLPQTHSLGNRRALILLAQMRRISPFSCLKDRHDFGFPQEEFDGNQFQKAQAISVLHEMIQQTFNLFSTKDSSAAWDESLLEKFYTELYQQLNDLEACVIQEVGVEETPLMNVDSILAVKKYFQRITLYLTEKKYSPCAWEVVRAEIMRSFSLSTNLQERLRRKE
modifications: Amino acid sequence of recombinant interferon
- TV (mm^3, mean ± SD) (D0) [1, 7]: 170 ± 41 mm^3
- TV (mm^3, mean ± SD) (D21) [1, 7]: 2244 ± 1043 mm^3
- TV (mm^3, mean ± SD) (D0) [1, 8]: 168 ± 49 mm^3
- TV (mm^3, mean ± SD) (D21) [1, 8]: 2388 ± 1544 mm^3
- TV (mm^3, mean ± SD) (D0) [1, 9]: 169 ± 40 mm^3
- TV (mm^3, mean ± SD) (D21) [1, 9]: 2284 ± 653 mm^3
- tolerability: signs of toxicity or weight loss [2]: no signs of toxicity or weight loss
- cell viability (different cancer cells): cell viability could not be detected
- beta-catenin protein level ([3]; 48 hr): dramatically decreased
- beta-catenin protein level ([3]; 72 hr): Further decrease
- beta-catenin protein level [4]: Decrease in beta-catenin protein level in the SW480 cells was obvious
- level of apoptosis-related molecular markers (procaspase-3, procaspase-8, PARP, cleaved caspase-3, cleaved caspase-8) [5]: neither of the interferons, IFN alpha-2b nor rSIFN-co, caused any reduction in the level of procaspase-3 or procaspase-8 or PARP, or induced any enhancement in the level of cleaved caspase-3 or cleaved caspase-8
- level of apoptosis-related molecular markers (procaspase-3, procaspase-8, PARP, cleaved caspase-3, cleaved caspase-8) [6]: neither of the interferons, IFN alpha-2b nor rSIFN-co, caused any reduction in the level of procaspase-3 or procaspase-8 or PARP, or induced any enhancement in the level of cleaved caspase-3 or cleaved caspase-8
